Data published in PMC3035870 (Molecular microbiology, 2009).
Read-outs that look alike come from different tables or passages of the source.

B1: Bacillus subtilis τ A550V mutant (natural protein, B. subtilis (strain 168), UniProt P09122 1-563, looked up)
chain: MSYQALYRVFRPQRFEDVVGQEHITKTLQNALLQKKFSHAYLFSGPRGTGKTSAAKIFAKAVNCEHAPVDEPCNECAACKGITNGSISDVIEIDAASNNGVDEIRDIRDKVKFAPSAVTYKVYIIDEVHMLSIGAFNALLKTLEEPPEHCIFILATTEPHKIPLTIISRCQRFDFKRITSQAIVGRMNKIVDAEQLQVEEGSLEIIASAADGGMRDALSLLDQAISFSGDILKVEDALLITGAVSQLYIGKLAKSLHDKNVSDALETLNELLQQGKDPAKLIEDMIFYFRDMLLYKTAPGLEGVLEKVKVDETFRELSEQIPAQALYEMIDILNKSHQEMKWTNHPRIFFEVAVVKICQTSHQSAADLPEVDMLMKKIQQLEQEVERLKTTGIKAAAESPKKEAPRVPKGGKSNYKAPVGRIHEILKEATRPDLDLLRNSWGKLLAHLKQQNKVSHAALLNDSEPVAAGSAAFVLKFKYEIHCKMVAEDNNGVRTNLEQILESMLGKRMDLIGVPEAQWGKIREEFLEDHQQENEGSNEPAEEDPLIAEVKKLVGADLIEIKD
B2: Δτ18, B. subtilis τ lacking the last 18 C-terminal residues (domain or fragment, B. subtilis (strain 168), UniProt P09122 1-545, looked up)
chain: MSYQALYRVFRPQRFEDVVGQEHITKTLQNALLQKKFSHAYLFSGPRGTGKTSAAKIFAKAVNCEHAPVDEPCNECAACKGITNGSISDVIEIDAASNNGVDEIRDIRDKVKFAPSAVTYKVYIIDEVHMLSIGAFNALLKTLEEPPEHCIFILATTEPHKIPLTIISRCQRFDFKRITSQAIVGRMNKIVDAEQLQVEEGSLEIIASAADGGMRDALSLLDQAISFSGDILKVEDALLITGAVSQLYIGKLAKSLHDKNVSDALETLNELLQQGKDPAKLIEDMIFYFRDMLLYKTAPGLEGVLEKVKVDETFRELSEQIPAQALYEMIDILNKSHQEMKWTNHPRIFFEVAVVKICQTSHQSAADLPEVDMLMKKIQQLEQEVERLKTTGIKAAAESPKKEAPRVPKGGKSNYKAPVGRIHEILKEATRPDLDLLRNSWGKLLAHLKQQNKVSHAALLNDSEPVAAGSAAFVLKFKYEIHCKMVAEDNNGVRTNLEQILESMLGKRMDLIGVPEAQWGKIREEFLEDHQQENEGSNEPAEEDP

Columns and labels:
Test in all cases: SEC
[1] = target: the molecule itself
[2] = target: B1
[3] = target: B2
[4] = target: the molecule itself; remark: listed apart in the source

| binding result [2] | binding result [3] | Binder | binding result [1] | binding result [4] |
| --- | --- | --- | --- | --- |
| – | – | Bacillus subtilis τ subunit of the clamp-loader (DnaX) (natural protein, B. subtilis (strain 168), UniProt P09122 1-563, looked up) MSYQALYRVFRPQRFEDVVGQEHITKTLQNALLQKKFSHAYLFSGPRGTGKTSAAKIFAKAVNCEHAPVDEPCNECAACKGITNGSISDVIEIDAASNNGVDEIRDIRDKVKFAPSAVTYKVYIIDEVHMLSIGAFNALLKTLEEPPEHCIFILATTEPHKIPLTIISRCQRFDFKRITSQAIVGRMNKIVDAEQLQVEEGSLEIIASAADGGMRDALSLLDQAISFSGDILKVEDALLITGAVSQLYIGKLAKSLHDKNVSDALETLNELLQQGKDPAKLIEDMIFYFRDMLLYKTAPGLEGVLEKVKVDETFRELSEQIPAQALYEMIDILNKSHQEMKWTNHPRIFFEVAVVKICQTSHQSAADLPEVDMLMKKIQQLEQEVERLKTTGIKAAAESPKKEAPRVPKGGKSNYKAPVGRIHEILKEATRPDLDLLRNSWGKLLAHLKQQNKVSHAALLNDSEPVAAGSAAFVLKFKYEIHCKMVAEDNNGVRTNLEQILESMLGKRMDLIGVPEAQWGKIREEFLEDHQQENEGSNEPAEEDPLIAEAKKLVGADLIEIKD | binds | – |
| binds | binds | Geobacillus stearothermophilus replicative helicase DnaB (enzyme, G. stearothermophilus (strain NCA1503), UniProt Q9X4C9 1-454, looked up) MSELFSERIPPQSIEAEQAVLGAVFLDPAALVPASEILIPEDFYRAAHQKIFHAMLRVADRGEPVDLVTVTAELAASEQLEEIGGVSYLSELADAVPTAANVEYYARIVEEKSVLRRLIRTATSIAQDGYTREDEIDVLLDEADRKIMEVSQRKHSGAFKNIKDILVQTYDNIEMLHNRDGEITGIPTGFTELDRMTSGFQRSDLIIVAARPSVGKTAFALNIAQNVATKTNENVAIFSLEMSAQQLVMRMLCAEGNINAQNLRTGKLTPEDWGKLTMAMGSLSNAGIYIDDTPSIRVSDIRAKCRRLKQESGLGMIVIDYLQLIQGSGRSKENRQQEVSEISRSLKALARELEVPVIALSQLSRSVEQRQDKRPMMSDIRESGSIEQDADIVAFLYRDDYYNKDSENKNIIEIIIAKQRNGPVGTVQLAFIKEYNKFVNLERRFDEAQIPPGA | binds | – |
| – | – | B1 | – | binds |
| – | – | B2 | binds | – |
